From patent US20200216522A1 (DENALI THERAPEUTICS, published 2020)
Like-named read-outs stand apart in the source and are kept apart here.

How the values were obtained:
Experiment in all cases: SPR Biacore
[1] = molecular target: T1, full-length human Tau (Tau441; 2N4R), recombinant (human, UniProt P10636 1-758)
T1 construct: made in E. coli, His6-Smt3 tag removed; biotinylated through amines for Octet and phage work; also called r-Tau; recombinant Tau

[2] = molecular target: T1, full-length human Tau (Tau441; 2N4R), …; remark: listed apart in the source
Protocol: (§1) IgG was purified with protein A affinity chromatography. The affinity of each hulC7 IgG variant for r-Tau was determined by surface plasmon resonance using a Biacore™ T200 instrument. Biacore™ Series S CM5 sensor chips were immobilized with monoclonal mouse anti-human IgG (Fc) antibody (Human antibody capture kit from GE Healthcare). Serial 3-fold dilutions of each hulC7 variant were injected at a flow rate of […]. Each sample was analyzed with 3-minute association and 10-minute dissociation. After each injection, the chip was regenerated using 3 M MgCl₂. Binding response was corrected by subtracting the RU from a flow cell capturing an irrelevant IgG at similar density. A 1:1 Languir model of simultaneous fitting of kₒₙ and koff was used for kinetics analysis.
A further round of affinity maturation was performed by mutating certain amino acids in selected CDR-H1, CDR-L1, and CDR-L3 sequences from Table 9A, as well as the sequence of CDR-H2 (SEQ ID NO:23) of hulC7.v2. Sequence changes were identified in each CDR (Table 9B). Binding affinities were evaluated using Biacore™ (Table 10B).

[3] = molecular target: T1, full-length human Tau (Tau441; 2N4R), …; remark: listed apart in the source
[4] = molecular target: T1, full-length human Tau (Tau441; 2N4R), …; remark: listed apart in the source
Protocol: as §1

T1 sequence (P10636 other isoform, or with tags, fused parts or gaps limits assumed): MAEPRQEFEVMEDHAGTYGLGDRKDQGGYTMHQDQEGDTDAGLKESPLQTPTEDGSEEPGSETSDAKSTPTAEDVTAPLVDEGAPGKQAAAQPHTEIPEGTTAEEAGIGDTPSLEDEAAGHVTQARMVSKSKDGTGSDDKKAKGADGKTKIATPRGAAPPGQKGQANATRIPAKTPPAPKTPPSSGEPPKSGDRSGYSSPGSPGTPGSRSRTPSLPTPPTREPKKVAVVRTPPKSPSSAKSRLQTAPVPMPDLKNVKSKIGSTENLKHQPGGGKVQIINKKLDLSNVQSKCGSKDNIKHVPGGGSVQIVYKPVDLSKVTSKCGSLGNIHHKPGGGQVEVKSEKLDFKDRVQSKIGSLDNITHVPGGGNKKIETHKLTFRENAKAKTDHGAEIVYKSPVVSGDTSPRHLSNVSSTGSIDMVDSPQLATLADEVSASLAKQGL

Binder | Kd [1] | koff [1] | kon [1] | Kd [2] | koff [2] | kon [2] | further results
Clone with H1_1 (antibody, V domains shown) VH: EVQLLESGGGLVQPGGSLRLSCAASGFKFSRVGVSWVRQAPGKGLEWVASISGDGGSYIHYADSVKGRFTISRDNSKNTLYLQMNSLRAEDTAVYYCARLPYWGQGTLVTVSS VL: DIVMTQSPDSLAVSLGERATINCKSSQSLLNSGNQKNYLTWYQQKPGQPPKLLIYWASTRESGVPDRFSGSGSGTDFTLTISSLQAEDVAVYYCQQYNSYPLTFGQGTKVEIKR | 0.122 nM | 0.000252 s⁻¹ | 2.07e+06 M⁻¹ s⁻¹ |  |  |  | 
Clone with L1_3 (antibody, V domains shown, IgG based on hu1C7.v2) VH: EVQLLESGGGLVQPGGSLRLSCAASGFTFSSYGMSWVRQAPGKGLEWVASISGDGGSYIHYADSVKGRFTISRDNSKNTLYLQMNSLRAEDTAVYYCARLPYWGQGTLVTVSS VL: DIVMTQSPDSLAVSLGERATINCKSSQSLHRSGTQKDYLVWYQQKPGQPPKLLIYWASTRESGVPDRFSGSGSGTDFTLTISSLQAEDVAVYYCQQYNSYPLTFGQGTKVEIK | 0.133 nM | 0.000286 s⁻¹ | 2.15e+06 M⁻¹ s⁻¹ | 0.109 nM | 0.000133 s⁻¹ | 1.22e+06 M⁻¹ s⁻¹ | 
Clone with L1_1 (antibody, V domains shown) VH: EVQLLESGGGLVQPGGSLRLSCAASGFTFSSYGMSWVRQAPGKGLEWVASISGDGGSYIHYADSVKGRFTISRDNSKNTLYLQMNSLRAEDTAVYYCARLPYWGQGTLVTVSS VL: DIVMTQSPDSLAVSLGERATINCKSSHSLYSSRRHKHYLAWYQQKPGQPPKLLIYWASTRESGVPDRFSGSGSGTDFTLTISSLQAEDVAVYYCQQYNSYPLTFGQGTKVEIKR | 0.192 nM | 0.000297 s⁻¹ | 1.54e+06 M⁻¹ s⁻¹ |  |  |  | 
Clone with H1_2 (antibody, V domains shown, IgG based on hu1C7.v2) VH: EVQLLESGGGLVQPGGSLRLSCAASGFTFSRVGTSWVRQAPGKGLEWVASISGDGGSYIHYADSVKGRFTISRDNSKNTLYLQMNSLRAEDTAVYYCARLPYWGQGTLVTVSS VL: DIVMTQSPDSLAVSLGERATINCKSSQSLLNSGNQKNYLTWYQQKPGQPPKLLIYWASTRESGVPDRFSGSGSGTDFTLTISSLQAEDVAVYYCQQYNSYPLTFGQGTKVEIKR | 0.092 nM | 0.000144 s⁻¹ | 1.56e+06 M⁻¹ s⁻¹ | 0.478 nM | 0.000132 s⁻¹ | 276000 M⁻¹ s⁻¹ | 
Clone with L1_3-10 (antibody, V domains shown, based on hu1C7.v2) VH: EVQLLESGGGLVQPGGSLRLSCAASGFTFSSYGMSWVRQAPGKGLEWVASISGDGGSYIHYADSVKGRFTISRDNSKNTLYLQMNSLRAEDTAVYYCARLPYWGQGTLVTVSS VL: DIVMTQSPDSLAVSLGERATINCKSSQSLHRSGTQKNYLVWYQQKPGQPPKLLIYWASTRESGVPDRFSGSGSGTDFTLTISSLQAEDVAVYYCQQYNSYPLTFGQGTKVEIK |  |  |  | 0.157 nM | 0.000147 s⁻¹ | 937000 M⁻¹ s⁻¹ | 
Clone with L1_3-11 (antibody, V domains shown, based on hu1C7.v2) VH: EVQLLESGGGLVQPGGSLRLSCAASGFTFSSYGMSWVRQAPGKGLEWVASISGDGGSYIHYADSVKGRFTISRDNSKNTLYLQMNSLRAEDTAVYYCARLPYWGQGTLVTVSS VL: DIVMTQSPDSLAVSLGERATINCKSSQSLHRSGTQKDYLAWYQQKPGQPPKLLIYWASTRESGVPDRFSGSGSGTDFTLTISSLQAEDVAVYYCQQYNSYPLTFGQGTKVEIK |  |  |  | 0.231 nM | 0.000223 s⁻¹ | 965000 M⁻¹ s⁻¹ | 
Clone with H1_4 (antibody, V domains shown, IgG based on hu1C7.v2) VH: EVQLLESGGGLVQPGGSLRLSCAASGFRFSGPGMSWVRQAPGKGLEWVASISGDGGSYIHYADSVKGRFTISRDNSKNTLYLQMNSLRAEDTAVYYCARLPYWGQGTLVTVSS VL: DIVMTQSPDSLAVSLGERATINCKSSQSLLNSGNQKNYLTWYQQKPGQPPKLLIYWASTRESGVPDRFSGSGSGTDFTLTISSLQAEDVAVYYCQQYNSYPLTFGQGTKVEIKR | 0.174 nM | 0.00023 s⁻¹ | 1.32e+06 M⁻¹ s⁻¹ | 0.333 nM | 0.000188 s⁻¹ | 564000 M⁻¹ s⁻¹ | 
Clone with L1_3 and H3_1 (antibody, V domains shown, IgG based on hu1C7.v2) VH: EVQLLESGGGLVQPGGSLRLSCAASGFTFSSYGMSWVRQAPGKGLEWVASISGDGGSYIHYADSVKGRFTISRDNSKNTLYLQMNSLRAEDTAVYYCAKLPFWGQGTLVTVSS VL: DIVMTQSPDSLAVSLGERATINCKSSQSLHRSGTQKDYLVWYQQKPGQPPKLLIYWASTRESGVPDRFSGSGSGTDFTLTISSLQAEDVAVYYCQQYNSYPLTFGQGTKVEIK | 0.062 nM | 0.000145 s⁻¹ | 2.36e+06 M⁻¹ s⁻¹ |  |  |  | 
Clone with H3_1 (antibody, V domains shown) VH: EVQLLESGGGLVQPGGSLRLSCAASGFTFSSYGMSWVRQAPGKGLEWVASISGDGGSYIHYADSVKGRFTISRDNSKNTLYLQMNSLRAEDTAVYYCAKLPFWGQGTLVTVSS VL: DIVMTQSPDSLAVSLGERATINCKSSQSLLNSGNQKNYLTWYQQKPGQPPKLLIYWASTRESGVPDRFSGSGSGTDFTLTISSLQAEDVAVYYCQQYNSYPLTFGQGTKVEIKR | 0.242 nM | 0.000478 s⁻¹ | 1.97e+06 M⁻¹ s⁻¹ |  |  |  | 
Clone with L1_3 and H1_4 (antibody, V domains shown, IgG based on hu1C7.v2) VH: EVQLLESGGGLVQPGGSLRLSCAASGFRFSGPGMSWVRQAPGKGLEWVASISGDGGSYIHYADSVKGRFTISRDNSKNTLYLQMNSLRAEDTAVYYCARLPYWGQGTLVTVSS VL: DIVMTQSPDSLAVSLGERATINCKSSQSLHRSGTQKDYLVWYQQKPGQPPKLLIYWASTRESGVPDRFSGSGSGTDFTLTISSLQAEDVAVYYCQQYNSYPLTFGQGTKVEIK | 0.038 nM | 8.72e-05 s⁻¹ | 2.28e+06 M⁻¹ s⁻¹ |  |  |  | 
hu1C7.v1 (antibody, V domains shown) VH: EVQLLESGGGLVQPGGSLRLSCAASGFTFSSYGMSWVRQAPGKGLEWVSSISGDGGSYIHYADSVKGRFTISRDNSKNTLYLQMNSLRAEDTAVYYCARLPYWGQGTLVTVSS VL: DIVMTQSPDSLAVSLGERATINCKSSQSLLNSGNQKNYLTWYQQKPGQPPKLLIYWASTRESGVPDRFSGSGSGTDFTLTISSLQAEDVAVYYCQQYNSYPLTFGQGTKVEIKR |  |  |  |  |  |  | Kd [3]: ~1.6 nM; fold weaker binding than chimeric 1C7 [3]: ~2 fold
Clone with H1_5 (antibody, V domains shown) VH: EVQLLESGGGLVQPGGSLRLSCAASVIKWRIYGMSWVRQAPGKGLEWVASISGDGGSYIHYADSVKGRFTISRDNSKNTLYLQMNSLRAEDTAVYYCARLPYWGQGTLVTVSS VL: DIVMTQSPDSLAVSLGERATINCKSSQSLLNSGNQKNYLTWYQQKPGQPPKLLIYWASTRESGVPDRFSGSGSGTDFTLTISSLQAEDVAVYYCQQYNSYPLTFGQGTKVEIKR | 0.183 nM | 0.000244 s⁻¹ | 1.34e+06 M⁻¹ s⁻¹ |  |  |  | 
Clone with L1_3 and H1_1 (antibody, V domains shown, IgG based on hu1C7.v2) VH: EVQLLESGGGLVQPGGSLRLSCAASGFKFSRVGVSWVRQAPGKGLEWVASISGDGGSYIHYADSVKGRFTISRDNSKNTLYLQMNSLRAEDTAVYYCARLPYWGQGTLVTVSS VL: DIVMTQSPDSLAVSLGERATINCKSSQSLHRSGTQKDYLVWYQQKPGQPPKLLIYWASTRESGVPDRFSGSGSGTDFTLTISSLQAEDVAVYYCQQYNSYPLTFGQGTKVEIK | 0.069 nM | 0.000113 s⁻¹ | 1.64e+06 M⁻¹ s⁻¹ |  |  |  | 
hu1C7.v3 (S75A) (antibody, V domains shown) VH: EVQLLESGGGLVQPGGSLRLSCAASGFTFSSYGMSWVRQAPGKGLEWVSSISGDGGSYIHYADSVKGRFTISRDNAKNTLYLQMNSLRAEDTAVYYCARLPYWGQGTLVTVSS VL: DIVMTQSPDSLAVSLGERATINCKSSQSLLNSGNQKNYLTWYQQKPGQPPKLLIYWASTRESGVPDRFSGSGSGTDFTLTISSLQAEDVAVYYCQQYNSYPLTFGQGTKVEIKR |  |  |  |  |  |  | Kd [3]: ~1.6 nM; fold weaker binding than chimeric 1C7 [3]: ~2 fold; Kd [4]: 1.7 nM; koff [4]: 0.0012 s⁻¹; kon [4]: 730000 M⁻¹ s⁻¹
anti-Tau antibody 1C7/3C.35.21 (antibody, human IgG1, kappa, L234A L235A, two 1C7 Fab arms; LALAPG; also called Tau^1C7/3C.35.21) heavy 1: EVKLVESGGGLVKPGGSLKLSCAASGFTFSSYGMSWVRQTPEKRLEWVASISGDGGSYIHYADSVKGRFTISRDSAKNTLYLQMSSLRSEDTALYYCARLPYWGQGTLVTVSAASTKGPSVFPLAPSSKSTSGGTAALGCLVKDYFPEPVTVSWNSGALTSGVHTFPAVLQSSGLYSLSSVVTVPSSSLGTQTYICNVNHKPSNTKVDKKVEPKSCDKTHTCPPCPAPEAAGGPSVFLFPPKPKDTLMISRTPEVTCVVVDVSHEDPEVKFNWYVDGVEVHNAKTKPREEQYNSTYRVVSVLTVLHQDWLNGKEYKCKVSNKALGAPIEKTISKAKGQPREPQVYTLPPSRDELTKNQVSLWCLVKGFYPSDIAVWWESYGTEWSSYKTTPPVLDSDGSFFLYSKLTVTKEEWQQGFVFSCSVMHEALHNHYTQKSLSLSPGK heavy 2: EVKLVESGGGLVKPGGSLKLSCAASGFTFSSYGMSWVRQTPEKRLEWVASISGDGGSYIHYADSVKGRFTISRDSAKNTLYLQMSSLRSEDTALYYCARLPYWGQGTLVTVSAASTKGPSVFPLAPSSKSTSGGTAALGCLVKDYFPEPVTVSWNSGALTSGVHTFPAVLQSSGLYSLSSVVTVPSSSLGTQTYICNVNHKPSNTKVDKKVEPKSCDKTHTCPPCPAPEAAGGPSVFLFPPKPKDTLMISRTPEVTCVVVDVSHEDPEVKFNWYVDGVEVHNAKTKPREEQYNSTYRVVSVLTVLHQDWLNGKEYKCKVSNKALGAPIEKTISKAKGQPREPQVYTLPPSRDELTKNQVSLSCAVKGFYPSDIAVEWESNGQPENNYKTTPPVLDSDGSFFLVSKLTVDKSRWQQGNVFSCSVMHEALHNHYTQKSLSLSPGK light: DIVMTQSPSSLTVTAGEKVTMSCKSSQSLLNSGNQKNYLTWYQQKPGQPPKLLIYWASTRESGVPDRFTGSGSGTDFTLTISNVQSEDLAEYFCQQYNSYPLTFGAGTKLELKRTVAAPSVFIFPPSDEQLKSGTASVVCLLNNFYPREAKVQWKVDNALQSGNSQESVTEQDSKDSTYSLSSTLTLSKADYEKHKVYACEVTHQGLSSPVTKSFNRGEC |  |  |  |  |  |  | Kd [3]: 0.4 nM
